These results are taken from the supplement of paper PMC10567573.

The data set in a line: protein stability index of a GFP-peptide fusion (GPS, HEK-293T) (PSI 1-6); higher = more stable.
[1] abbreviates: treatment: DMSO, c terminus: a fixed tail appended.
[2] abbreviates: treatment: MLN4924 1 uM, 8 h, c terminus: a fixed tail appended.

± gives the standard deviation.
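Further: 24-mer peptide tiles fused after GFP, lentivirally expressed, FACS-sorted into six equal bins by GFP/DsRed ratio, decoded by Illumina sequencing, PSI is the read-weighted mean bin number.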

Turning to IVIQTYYRQWHAKIFVENLRRQKS [IQUB], the protein stability index reads like this: under setting [1], 2.453 ± 0.011; under setting [2], 3.12 ± 0.52.
Taken in the same sequence, the figures for IWVPIKIGALTYFAQADALKGTLV [ACSBG2] were 2.76 ± 0.71 and 3.08 ± 0.67.
On the same counts, the results for IYTNRYETNEEDKTLQEIYRKYRK [FBXO39] are 2.96 ± 0.32 and 3.58 ± 0.61.
KALNTFIDDLFAFVIKMPVMYRIG [CLPTM1]: the protein stability index is 3.02 ± 0.53 under setting [1] and 2.82 ± 0.5 under setting [2].
Take KDEWHKVFDLPESLGGIRACTLTV [KLHL13]: the protein stability index is, setting by setting: under setting [1], 2.89 ± 0.63; under setting [2], 2.89 ± 0.83.
On the same counts, the results for KDLTEYLKVRSHDPEEAIRHDVIV [PDS5B] are 3.26 ± 0.38 and 3.39 ± 0.14.
Taken in the same sequence, the figures for KEAQYIRTELVEQAFRAIDRADYY [PCMTD2] were 2.71 ± 0.27 and 2.88 ± 0.36.
Taken in the same sequence, the figures for KEGEGEVGGEAVEVEEVENVQTEF [TRIM55] were 5.716 ± 0.023 and 5.59 ± 0.37.
As to KEHYLTFEKSRYETYIHLLAMKIK [PSD2], the protein stability index was found to be 3.28 ± 0.76 under setting [1] and 2.73 ± 0.94 under setting [2].
Consider KEQILEFLVLEQFLTILPEELQSW [ZNF232], for which the protein stability index came to 3.21 ± 0.27 under setting [1] and 2.85 ± 0.62 under setting [2].
For KEQSKELQMKLEKLREKERKKEAK [FAM50A], the protein stability index under setting [1] came to 5.02 ± 0.54 and the protein stability index under setting [2] was 5.55 ± 0.16.
Consider KEQVLRKGTENLQRAQAEVLQSVR [FCHSD1], for which the protein stability index under setting [1] is 4.5 ± 0.096 and the protein stability index under setting [2] was 4.56 ± 0.27.
For the sequence KETVNVKTVCGYYTSAGTYGLDSV [GMCL1], the protein stability index by setting is: under setting [1], 2.48 ± 0.29; under setting [2], 2.68 ± 0.3.
On the same counts, the results for KGLSGGFGSRSLYSLGGVRSLNVA [KRT71] are 2.58 ± 0.26 and 2.41 ± 0.39.
Consider KHLLNLGVEIDEINVYGNTALHIA [ANKRD44], for which the protein stability index reads like this: under setting [1], 2.19 ± 0.34; under setting [2], 2.07 ± 0.48.
For KHWREWGSHAQTSQIQSIRRIQQ [CRYBA1], the protein stability index amounted to 3.25 ± 0.69 (treatment: DMSO, c terminus: native) and 3.19 ± 0.46 (treatment: MLN4924 1 uM, 8 h, c terminus: native).
On to KINVNEIFYDLVRQINRKTPVPGK [RAP1B], for which the protein stability index is, setting by setting: under setting [1], 2.44 ± 0.4; under setting [2], 2.25 ± 0.26.
On the same counts, the results for KKDTGHIYAMKILRKSDMLEKEQV [STK38L] are 3.36 ± 0.39 and 3.54 ± 0.21.
As to KKKRPPQPPEESQPPQSQAQVPPA [PLK2], the protein stability index reads like this: under setting [1], 5.35 ± 0.23; under setting [2], 5.46 ± 0.14.
Taken in the same sequence, the figures for KKRYEEEINKRTAAENEFVLLKKD [KRT71] were 5.07 ± 0.2 and 4.99 ± 0.27.
Turning to KLEAEKRILQEKLDQPVSAPPSPR [CCDC6], the protein stability index is, setting by setting: under setting [1], 5.24 ± 0.26; under setting [2], 5.21 ± 0.37.
In turn, KLFFVDTGSKEKGLTKKRTKVQKK [NOP53] showed a protein stability index under setting [1] of 3.26 ± 0.13 and a protein stability index under setting [2] of 3.83 ± 0.54.
In the case of KLFSTYLRPPHTSRGTSQTPNASS [LPCAT4], the protein stability index was 3.17 ± 0.19 under setting [1] and 3.08 ± 0.32 under setting [2].
For KLPNDSRVERRFHFSQSLTVIHDF [FAF2], the protein stability index came to 2.17 ± 0.19 under setting [1] and 2.26 ± 0.44 under setting [2].
Taken in the same sequence, the figures for KLVKVCNGHDCWSLISLSNNTGKN [TENT5D] were 2.33 ± 0.24 and 2.34 ± 0.43.
Taken in the same sequence, the figures for KMAAVSKASGRFGLLQGTSAETSG [SEPHS2] were 3.94 ± 0.15 and 3.88 ± 0.25.
On the same counts, the results for KMNLYESFAQATQLGDLHTCLMMD [INTS3] are 2.5 ± 0.2 and 2.58 ± 0.37.
KMSLYSEADSGYGSYGGFASAPTT [TRIM9]: the protein stability index amounted to 3.15 ± 0.36 under setting [1] and 3.18 ± 0.12 under setting [2].
On the same counts, the results for KMTLTQVSTWFANARRRLKKENKM [IRX6] are 2.83 ± 0.29 and 3.02 ± 0.23.
With KNSLFPSPISSISPGLHSFTDHQR [KCNK9], the protein stability index is, setting by setting: under setting [1], 3.3 ± 0.25; under setting [2], 3.27 ± 0.38.
With KPANILLDAHYHVKISDFGLAKCN [RIPK4], the protein stability index was 2.33 ± 0.22 under setting [1] and 2.49 ± 0.23 under setting [2].
On the same counts, the results for KPISTKSQFLKHQQTHNIEKAHEC [ZNF649] are 4.48 ± 0.27 and 4.41 ± 0.16.
Taken in the same sequence, the figures for KPIVPTDGKRVIVVFHCEFSSERG [CDC25A] were 2.64 ± 0.72 and 2.33 ± 0.28.
Taken in the same sequence, the figures for KPSENHPLHNSGLLSLDPVQDKTP [MED27] were 4.984 ± 0.04 and 5.02 ± 0.22.
On to KQPLRKYVTPSDFDQLKQFLTFDK [EFHC1], for which the protein stability index turned out to be 2.94 ± 0.18 under setting [1] and 3.02 ± 0.17 under setting [2].
Regarding KRFASLSRFVETLVVADDKMAAFH [ADAMTS4], the protein stability index worked out at 2.25 ± 0.52 under setting [1] and 2.06 ± 0.58 under setting [2].
On the same counts, the results for KSSAQGPIPWFLPESRSLPSSPLR [PPEF2] are 3.56 ± 0.53 and 3.56 ± 0.21.
Taken in the same sequence, the figures for KSTSKYIYQTLFLNGENSDIKICA [GMCL1] were 2.06 ± 0.65 and 3.41 ± 1.3.
Taken in the same sequence, the figures for KTQEHTPTPDDHVFRWLAYSYAST [CPXM2] were 2.14 ± 0.34 and 2.2 ± 0.3.
Take KTSQLSYYYMGFYIHSCPKMKYKG [ATE1]: the protein stability index by setting is: under setting [1], 2.47 ± 1.2; under setting [2], 2.25 ± 0.66.
On the same counts, the results for KVIERGERLDELQDKSESLSDNAT [VAMP4] are 5.38 ± 0.13 and 5.33 ± 0.18.
For KWFGRKRTLSAFLCLGGLACLIVM [SLC22A15], the protein stability index runs as follows: under setting [1], 5.07 ± 0.21; under setting [2], 5.17 ± 0.18.
KWRKVGRSLQRGCRALRDPALDSL [TRADD]: the protein stability index stood at 2.19 ± 0.16 under setting [1] and 2.54 ± 0.13 under setting [2].
Turning to KYNSARADFEQKMLDSALRFQAME [FCHO1], the protein stability index worked out at 3.5 ± 0.074 under setting [1] and 3.48 ± 0.27 under setting [2].
Consider LAESEFESAAFSQGSRSGVSGGSR [PHTF1], for which the protein stability index stood at 4.83 ± 0.3 under setting [1] and 4.93 ± 0.32 under setting [2].
With LAKALLKRTAQAIEPYITNFFNQV [PDS5B], the protein stability index runs as follows: under setting [1], 2.58 ± 0.71; under setting [2], 2.7 ± 0.72.
Taken in the same sequence, the figures for LARRRRRRQARREAEADKPRRLGR [NOP53] were 4.63 ± 0.093 and 4.75 ± 0.42.
On the same counts, the results for LASRIRSNKKMLLLVGGLPPGPDR [KLHL14] are 2.32 ± 0.17 and 2.34 ± 0.42.
Taken in the same sequence, the figures for LCLGGLACLIVMFLPEKKDTGVFA [SLC22A15] were 3.44 ± 0.26 and 3.08 ± 0.67.
Take LDEGMQIPSTQFDAAHPTNVQRLA [CTNNB1]: the protein stability index came out at 4.73 ± 0.12 under setting [1] and 4.7 ± 0.2 under setting [2].
Taken in the same sequence, the figures for LDLILAILALELICSLICLLIYTV [TMEM192] were 2.89 ± 0.55 and 3 ± 0.5.
On the same counts, the results for LDPAYTTLEFENVQVLTMGNDTSP [HNF4A] are 5.58 ± 0.15 and 5.46 ± 0.18.
As for LDVDTAAGGFQQRQGLKYCLPLTF [FBXO3], the protein stability index runs as follows: under setting [1], 2.42 ± 0.19; under setting [2], 2.22 ± 0.45.
With LEERLQLQFEAEMARLQEEHGDQL [MTUS2], the protein stability index under setting [1] was 5.4 ± 0.32 and the protein stability index under setting [2] was determined as 5.13 ± 0.17.
Taken in the same sequence, the figures for LEPDEDPLCMLLLIDHLALRARNY [TCF25] were 2.54 ± 0.32 and 2.37 ± 0.23.
On the same counts, the results for LERNPNGVADGVIKSVLWQTLQAL [CDKL4] are 2.28 ± 0.94 and 2.56 ± 1.1.
Regarding LESQVQKDGVADSTVISSMPCLLM [C18orf25], the protein stability index reads like this: under setting [1], 3.39 ± 0.25; under setting [2], 3.54 ± 0.27.
Taken in the same sequence, the figures for LEVNKPKNRYANVIAYDHSRVLLS [PTPRD] were 2.54 ± 0.31 and 2.71 ± 0.21.
On the same counts, the results for LFCDVTLTAQGQQFHCHKAVLASC [KLHL14] are 2.66 ± 0.55 and 2.71 ± 0.57.
Consider LFEEEDHVKKLQQKVATLEKRNRQ [CCDC3], for which the protein stability index by setting is: under setting [1], 4.46 ± 0.29; under setting [2], 4.68 ± 0.23.
Consider LFFIDGSTPSDNIVRRFLNICENT [CDC14A], for which the protein stability index was 2.37 ± 0.17 under setting [1] and 2.22 ± 0.24 under setting [2].
Taken in the same sequence, the figures for LFLPCLLCYPPAKGCLKLCRRCYD [SPRY1] were 2.36 ± 0.19 and 2.45 ± 0.62.
Taken in the same sequence, the figures for LGLKDKEGYTSFWNDCISSGLRGG [GOLPH3L] were 2.65 ± 0.59 and 2.83 ± 0.31.
With LGLTQNPEGQKVLFVTFLLIYMVT [OR4A15], the protein stability index came out at 2.75 ± 0.66 under setting [1] and 3.33 ± 1.1 under setting [2].
On the same counts, the results for LGNEYPKLHYPELYVLKGGYKEFF [CDC25A] are 2.02 ± 0.23 and 2.01 ± 0.39.
As to LGNFFTTLRVVHHKFHSQRHGSKK [TMEM120A], the protein stability index under setting [1] stood at 2.39 ± 0.21 and the protein stability index under setting [2] came out at 2.54 ± 0.64.
Taken in the same sequence, the figures for LHEVLTEVVPIHGRGNFPTLEITL [TENT5C] were 2.73 ± 0.56 and 2.53 ± 0.53.
On to LHPVQKVILNYPSPWDQEERPAQR [TRAF3IP2], for which the protein stability index under setting [1] worked out at 3.4 ± 0.37 and the protein stability index under setting [2] was 3.66 ± 0.34.
Taken in the same sequence, the figures for LHREVRSTPLTATPGGRGDMKYGI [VTI1B] were 3.72 ± 0.24 and 3.67 ± 0.12.
On the same counts, the results for LIAEVMGEDIPEKIKDEVHPEVKC [C8orf76] are 4.51 ± 0.58 and 4.31 ± 0.14.
On the same counts, the results for LICKYDFIMLSCVQLQRIPLSAVY [TPRG1] are 3.2 ± 0.37 and 3.36 ± 0.83.
Regarding LIERERSALGPNVTKITLESFLAW [ZC3H15], the protein stability index is 2.19 ± 0.47 under setting [1] and 2.49 ± 0.14 under setting [2].
